Reference: patent US6689596B2, “High level expression of human cyclooxygenase-2” (Merck & Co., Inc., priority 1992, dated 2004)

B1: EGF: human EGF (CALBIOCHEM) (protein, UniProt P01133 23-1207, looked up)
Pro-epidermal growth factor: PQHWSCPEGTLAGNGNSTCVGPAPFLIFSHGNSIFRIDTEGTNYEQLVVDAGVSVIMDFHYNEKRIYWVDLERQLLQRVFLNGSRQERVCNIEKNVSGMAINWINEEVIWSNQQEGIITVTDMKGNNSHILLSALKYPANVAVDPVERFIFWSSEVAGSLYRADLDGVGVKALLETSEKITAVSLDVLDKRLFWIQYNREGSNSLICSCDYDGGSVHISKHPTQHNLFAMSLFGDRIFYSTWKMKTIWIANKHTGKDMVRINLHSSFVPLGELKVVHPLAQPKAEDDTWEPEQKLCKLRKGNCSSTVCGQDLQSHLCMCAEGYALSRDRKYCEDVNECAFWNHGCTLGCKNTPGSYYCTCPVGFVLLPDGKRCHQLVSCPRNVSECSHDCVLTSEGPLCFCPEGSVLERDGKTCSGCSSPDNGGCSQLCVPLSPVSWECDCFPGYDLQLDEKSCAASGPQPFLLFANSQDIRHMHFDGTDYGTLLSQQMGMVYALDHDPVENKIYFAHTALKWIERANMDGSQRERLIEEGVDVPEGLAVDWIGRRFYWTDRGKSLIGRSDLNGKRSKIITKENISQPRGIAVHPMAKRLFWTDTGINPRIESSSLQGLGRLVIASSDLIWPSGITIDFLTDKLYWCDAKQSVIEMANLDGSKRRRLTQNDVGHPFAVAVFEDYVWFSDWAMPSVMRVNKRTGKDRVRLQGSMLKPSSLVVVHPLAKPGADPCLYQNGGCEHICKKRLGTAWCSCREGFMKASDGKTCLALDGHQLLAGGEVDLKNQVTPLDILSKTRVSEDNITESQHMLVAEIMVSDQDDCAPVGCSMYARCISEGEDATCQCLKGFAGDGKLCSDIDECEMGVPVCPPASSKCINTEGGYVCRCSEGYQGDGIHCLDIDECQLGEHSCGENASCTNTEGGYTCMCAGRLSEPGLICPDSTPPPHLREDDHHYSVRNSDSECPLSHDGYCLHDGVCMYIEALDKYACNCVVGYIGERCQYRDLKWWELRHAGHGQQQKVIVVAVCVVVLVMLLLLSLWGAHYYRTQKLLSKNPKNPYEESSRDVRSRRPADTEDGMSSCPQPWFVVIKEHQDLKNGGQPVAGEDGQAADGSMQPTSWRQEPQLCGMGTEQGCWIPVSSDKGSCPQVMERSFHMPSYGTQTLEGGVEKPHSLLSANPLWQQRALDPPHQMELTQ
modifications: Pro-epidermal growth factor
B2: IL1-α: human recombinant IL1-α (R and D systems Inc.) (protein, UniProt P01583 113-271, looked up)
Interleukin-1 alpha: SAPFSFLSNVKYNFMRIIKYEFILNDALNQSIIRANDQYLTAAALHNLDEAVKFDMGAYKSSKDDAKITVILRISKTQLYVTAQDEDQPVLLKEMPEIPKTITGSETNLLFFWETHGTKNYFTSVAHPNLFIATKQDYWVCLAGGPPSITDFQILENQA

Test system: osteosarcoma 143 cells
Assay: PGE2 synthesis by osteosarcoma 143 cells in response to arachidonic acid after treatment with growth factors/cytokines
Format: cell-based, human
Details: within a 3-hour period, 1% serum, relative to cells grown in the absence of these factors

Molecule | levels of PGE2 synthesis by osteosarcoma 143 cells in response to arachidonic acid (15 ng/ml) | levels of PGE2 synthesis by osteosarcoma 143 cells in response to arachidonic acid (10 pg/ml)
B1 | increased | –
B2 | – | increased
